This is an account of results in patent EP3741773A1 (City of Hope, dated 2020).

The Kd is the free concentration of one partner at which half of the binding sites on the other are occupied at equilibrium, for simple one-to-one binding. Read a low Kd as tighter binding.

The target of the assay is T1, meditope-enabled trastuzumab.
T1 construct: after it there are no differences from the human heavy chain of trastuzumab; Full IgG was expressed; Labelled with Alexa dyes in FACS; also called TM; trastuzumab memab
The assay can be described thus: SPR.

T1 sequence (heavy, as listed by the source, chain 1 of 2): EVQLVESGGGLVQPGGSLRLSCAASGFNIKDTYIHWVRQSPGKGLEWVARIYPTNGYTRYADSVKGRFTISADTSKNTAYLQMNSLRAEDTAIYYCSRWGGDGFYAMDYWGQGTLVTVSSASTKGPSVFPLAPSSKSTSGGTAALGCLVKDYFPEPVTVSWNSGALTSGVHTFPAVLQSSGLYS
T1 sequence (light, as listed by the source, chain 2 of 2): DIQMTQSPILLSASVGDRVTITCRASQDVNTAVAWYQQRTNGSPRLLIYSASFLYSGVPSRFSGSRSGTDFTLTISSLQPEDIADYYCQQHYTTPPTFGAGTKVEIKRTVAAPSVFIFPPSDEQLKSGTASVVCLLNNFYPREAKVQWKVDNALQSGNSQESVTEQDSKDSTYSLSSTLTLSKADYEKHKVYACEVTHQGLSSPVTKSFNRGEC

B1: Protein L (other)
chain: SEVTIKVNLIFADGKIQTAEFKGTFEEATAEAYRYAALLAKVNGEYTADLEDGGNHMNIKFAG
notes: also called Protein L (only); PpL
B1 came in with a Kd of approximately 500 nM.
